# According to article PMC8956632:
# B1: OX1R-EGFP [human] / 5-HT1AR-Rluc [human] (parent)
# chain 1: MEPSATPGAQMGVPPGSREPSPVPPDYEDEFLRYLWRDYLYPKQYEWVLIAAYVAVFVVALVGNTLVCLAVWRNHHMRTVTNYFIVNLSLADVLVTAICLPASLLVDITESWLFGHALCKVIPYLQAVSVSVAVLTLSFIALDRWYAICHPLLFKSTARRARGSILGIWAVSLAIMVPQAAVMECSSVLPELANRTRLFSVCDERWADDLYPKIYHSCFFIVTYLAPLGLMAMAYFQIFRKLWGRQIPGTTSALVRNWKRPSDQLGDLEQGLSGEPQPRARAFLAEVKQMRARRKTAKMLMVVLLVFALCYLPISVLNVLKRVFGMFRQASDREAVYACFTFSHWLVYANSAANPIIYNFLSGKFREQFKAAFSCCLPGLGPCGSLKAPSPRSSASHKSLSLQSRCSISKISEHVVLTSVTTVLP
# chain 2: MDVLSPGQGNNTTSPPAPFETGGNTTGISDVTVSYQVITSLLLGTLIFCAVLGNACVVAAIALERSLQNVANYLIGSLAVTDLMVSVLVLPMAALYQVLNKWTLGQVTCDLFIALDVLCCTSSILHLCAIALDRYWAITDPIDYVNKRTPRRAAALISLTWLIGFLISIPPMLGWRTPEDRSDPDACTISKDHGYTIYSTFGAFYIPLLLMLVLYGRIFRAARFRIRKTVKKVEKTGADTRHGASPAPQPKKSVNGESGSRNWRLGVESKAGGALCANGAVRQGDDGAALEVIEVHRVGNSKEHLPLPSEAGPTPCAPASFERKNERNAEAKRKMALARERKTVKTLGIIMGTFILCWLPFFIVALVLPFCESSCHMPTLLGAIINWLGYSNSLLNPVIYAYFNKDFQNAFKKIIKCKFCRQ
# B2: 5-HT1AR-EGFP [human] / OX1R-Rluc [human] (parent)
# chain 1: B1 chain 2
# chain 2: B1 chain 1
# Variants of: B1
# Experiment: BRET
# Conditions: with 5-HT1AR-Rluc [human]; HEK293 cells, basal (no agonist); parent: 0.27; read off a plot
row,Variant,response
1,chain 1 L230A,0.21
2,chain 1 L225A,0.23

# Second part, the variant after the results:
row,response,Variant
1,0.15,chain 1 M176A
2,0.27,chain 1 R160A

# Variants of: B2
# Experiment: BRET
# Conditions: with OX1R-Rluc [human]; HEK293 cells, basal (no agonist); parent: 0.26; read off a plot
row,response,Variant
1,0.16,chain 1 R151A
2,0.26,chain 1 W175A
3,0.23,chain 1 Y198A
